Here are results for one variant from PMC9117659, “Phase transition and remodeling complex assembly are important for SS18-SSX oncogenic activity in synovial sarcomas” (Nature Communications, 2022).

To fix the notation:
B1: Human SS18 (residues 1-387), purified recombinant [human] / BRG1^(1-282), N-terminal 282-residue fragment of BRG1 [human] (parent complex)
chain 1: MSVAFAAPRQRGKGEITPAAIQKMLDDNNHLIQCIMDSQNKGKTSECSQYQQMLHTNLVYLATIADSNQNMQSLLPAPPTQNMPMGPGGMNQSGPPPPPRSHNMPSDGMVGGGPPAPHMQNQMNGQMPGPNHMPMQGPGPNQLNMTNSSMNMPSSSHGSMGGYNHSVPSSQSMPVQNQMTMSQGQPMGNYGPRPNMSMQPNQGPMMHQQPPSQQYNMPQGGGQHYQGQQPPMGMMGQVNQGNHMMGQRQIPPYRPPQQGPPQQYSGQEDYYGDQYSHGGQGPPEGMNQQYYPDGNSQYGQQQDAYQGPPPQQGYPPQQQQYPGQQGYPGQQQGYGPSQGGPGPQYPNYPQGQGQQYGGYRPTQPGPPQPPQQRPYGYDQGQYGNYQQ
chain 2: MSTPDPPLGGTPRPGPSPGPGPSPGAMLGPSPGPSPGSAHSMMGPSPGPPSAGHPIPTQGPGGYPQDNMHQMHKPMESMHEKGMSDDPRYNQMKGMGMRSGGHAGMGPPPSPMDQHSQGYPSPLGGSEHASSPVPASGPSSGPQMSSGPGGAPLDGADPQALGQQNRGPTPFNQNQLHQLRAQIMAYKMLARGQPLPDHLQMAVQGKRPMPGMQQQMPTLPPPSVSATGPGPGPGPGPGPGPGPAPPNYSRPHGMGGPNMPPPGPSGVPPGMPGQPPGGPPK

In the assay the parent is B1. Nature of the assay: sedimentation assay; 60 µM each protein; parent: 65; read off a plot.
With chain 1 I32E, chain 1 L54E, chain 1 A65E, the screen value was roughly 6%.
